# Measured values as given in patent US20120135912A1 (PERSEID THERAPEUTICS, published 2012).
# Biological target: T1, human VLA4-Fc (alpha4-Fc/beta1-Fc heterodimer) (human)
# T1 construct: Soluble heterodimer from CHO cells, Protein A purified; also called VLA-Fc
# Experiment: SPR (BIACORE), crude CHO-S supernatant on VLA4-Fc
# T1 sequence (chain, as listed by the source limits assumed, form in doubt, chain 1 of 2): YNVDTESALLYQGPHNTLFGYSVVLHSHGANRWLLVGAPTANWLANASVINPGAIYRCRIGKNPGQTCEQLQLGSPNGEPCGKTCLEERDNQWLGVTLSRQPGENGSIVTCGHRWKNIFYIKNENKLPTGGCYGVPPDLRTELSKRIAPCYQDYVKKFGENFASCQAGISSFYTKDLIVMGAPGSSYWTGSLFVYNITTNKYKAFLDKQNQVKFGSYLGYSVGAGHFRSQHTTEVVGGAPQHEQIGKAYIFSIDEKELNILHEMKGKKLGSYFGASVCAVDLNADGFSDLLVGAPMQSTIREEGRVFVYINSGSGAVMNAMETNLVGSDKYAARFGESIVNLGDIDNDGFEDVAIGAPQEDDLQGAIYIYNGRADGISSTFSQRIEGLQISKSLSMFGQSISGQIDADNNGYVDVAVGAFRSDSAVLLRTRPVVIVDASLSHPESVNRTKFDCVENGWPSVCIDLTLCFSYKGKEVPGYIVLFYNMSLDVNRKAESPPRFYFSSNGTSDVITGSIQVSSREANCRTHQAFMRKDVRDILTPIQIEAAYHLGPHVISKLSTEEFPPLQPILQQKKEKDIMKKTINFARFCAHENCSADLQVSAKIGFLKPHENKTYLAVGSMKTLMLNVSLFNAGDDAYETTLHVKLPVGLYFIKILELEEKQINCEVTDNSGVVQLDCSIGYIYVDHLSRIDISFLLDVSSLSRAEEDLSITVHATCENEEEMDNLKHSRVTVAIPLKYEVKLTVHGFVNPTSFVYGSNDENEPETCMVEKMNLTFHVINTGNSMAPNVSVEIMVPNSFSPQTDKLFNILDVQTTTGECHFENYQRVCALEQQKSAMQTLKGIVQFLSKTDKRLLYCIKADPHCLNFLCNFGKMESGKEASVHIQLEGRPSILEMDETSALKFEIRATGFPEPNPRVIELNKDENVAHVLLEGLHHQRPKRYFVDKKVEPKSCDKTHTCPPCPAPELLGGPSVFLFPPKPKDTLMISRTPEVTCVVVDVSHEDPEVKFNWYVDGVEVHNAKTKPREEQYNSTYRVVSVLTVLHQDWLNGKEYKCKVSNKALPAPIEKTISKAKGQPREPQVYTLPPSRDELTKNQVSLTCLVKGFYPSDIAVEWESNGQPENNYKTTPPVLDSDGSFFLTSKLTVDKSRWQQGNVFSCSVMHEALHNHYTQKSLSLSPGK
# T1 sequence (chain, as listed by the source limits assumed, form in doubt, chain 2 of 2): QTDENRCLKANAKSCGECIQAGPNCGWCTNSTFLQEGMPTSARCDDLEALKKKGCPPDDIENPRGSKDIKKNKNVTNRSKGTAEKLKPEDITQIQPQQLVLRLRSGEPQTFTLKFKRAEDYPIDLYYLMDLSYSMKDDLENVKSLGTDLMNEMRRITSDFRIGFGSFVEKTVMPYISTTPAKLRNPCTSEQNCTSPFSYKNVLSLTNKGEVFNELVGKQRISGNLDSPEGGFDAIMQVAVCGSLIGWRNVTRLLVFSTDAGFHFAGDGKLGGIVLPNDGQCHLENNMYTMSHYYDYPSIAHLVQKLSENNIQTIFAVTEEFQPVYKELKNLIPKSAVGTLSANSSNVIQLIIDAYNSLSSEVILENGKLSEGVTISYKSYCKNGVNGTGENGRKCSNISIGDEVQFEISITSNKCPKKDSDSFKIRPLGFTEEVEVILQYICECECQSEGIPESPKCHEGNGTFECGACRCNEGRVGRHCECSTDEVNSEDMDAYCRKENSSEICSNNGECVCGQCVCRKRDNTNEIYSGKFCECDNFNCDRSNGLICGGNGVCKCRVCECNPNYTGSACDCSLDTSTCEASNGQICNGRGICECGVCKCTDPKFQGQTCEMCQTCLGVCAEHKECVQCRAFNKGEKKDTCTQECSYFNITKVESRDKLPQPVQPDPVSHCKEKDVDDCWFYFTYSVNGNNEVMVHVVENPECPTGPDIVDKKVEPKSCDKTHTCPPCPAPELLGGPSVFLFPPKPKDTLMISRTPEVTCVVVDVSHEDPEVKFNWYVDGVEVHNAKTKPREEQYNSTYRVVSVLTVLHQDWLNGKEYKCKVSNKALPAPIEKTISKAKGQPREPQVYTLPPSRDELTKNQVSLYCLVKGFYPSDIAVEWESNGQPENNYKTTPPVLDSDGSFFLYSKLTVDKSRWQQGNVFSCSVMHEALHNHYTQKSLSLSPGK
row,fold weaker binding relative to 146R0 (KD(variant)/KD(146R0)) [fold],Binder
1,1.6,"146R22 (ligand, Crude CHO-S supernatant, 3x spacer-FLAG tagged) FKIETTPESRYLAQIGDSVSLTCSTTGCESPLFFWRTLLDSPLNGKVTNEGTTSTLTMNPVSFGNEHSYLCTARCESRKLEKGIQVEIYSFPKDPEIHLSGPLEAGKPITVKCSVADVYPFDRLEIDLLKGDHLMKSQEFLEDADRKSLETKSLEVTFTPVIEDIGKVLVCRAKLHIDEMDSVPTVRQAVKELQVYISPGGGSDYKDDDDKGGGSDYKDDDDKGGGSDYKDDDDKGS"
2,6.1,"146R23 (ligand, Crude CHO-S supernatant, 3x spacer-FLAG tagged) FKIETTPESRYLAQIGDSVSLTCSTTGCESPFFFWRTLLDSPLNGKVTNEGTTSTLTMNPVSFGNEHSYLCTARCESRKLEKGIQVEIYSFPKDPEIHLSGPLEAGKPITVKCSVADVYPFDRLEIDLLKGDHLMKSQEFLEDADRKSLETKSLEVTFTPVIEDIGKVLVCRAKLHIDEMDSVPTVRQAVKELQVYISPGGGSDYKDDDDKGGGSDYKDDDDKGGGSDYKDDDDKGS"

# The next lines start with the binder.
row,Binder,fold weaker binding relative to 146R0 (KD(variant)/KD(146R0)) [fold]
1,"146R19 (ligand, Crude CHO-S supernatant, 3x spacer-FLAG tagged) FKIETTPESRYLAQIGDSVSLTCSTTGCESPFFFWRPQIDSPLNGKVTNEGTTSTLTMNPVSFGNEHSYLCTARCESRKLEKGIQVEIYSFPKDPEIHLSGPLEAGKPITVKCSVADVYPFDRLEIDLLKGDHLMKSQEFLEDADRKSLETKSLEVTFTPVIEDIGKVLVCRAKLHIDEMDSVPTVRQAVKELQVYISPGGGSDYKDDDDKGGGSDYKDDDDKGGGSDYKDDDDKGS",40
2,"146R20 (ligand, Crude CHO-S supernatant, 3x spacer-FLAG tagged) FKIETTPESRYLAQIGDSVSLTCSTTGCESPFFFWRPQIDSPLNGKVTNEGTTSTLTMNPVSFGNEHSYLCTARCESRSLEKGIQVEIYSFPKDPEIHLSGPLEAGKPITVKCSVADVYPFDRLEIDLLKGDHLMKSQEFLEDADRKSLETKSLEVTFTPVIEDIGKVLVCRAKLHIDEMDSVPTVRQAVKELQVYISPGGGSDYKDDDDKGGGSDYKDDDDKGGGSDYKDDDDKGS",9.3
3,"146R21 (ligand, Crude CHO-S supernatant, 3x spacer-FLAG tagged; also called I46R21) FKIETTPESRYLAQIGDSVSLTCSTTGCESPFFFWRTLLDSPLNGKVTNEGTTSTLTMNPVSFGNEHSYLCTARCESRSLEKGIQVEIYSFPKDPEIHLSGPLEAGKPITVKCSVADVYPFDRLEIDLLKGDHLMKSQEFLEDADRKSLETKSLEVTFTPVIEDIGKVLVCRAKLHIDEMDSVPTVRQAVKELQVYISPGGGSDYKDDDDKGGGSDYKDDDDKGGGSDYKDDDDKGS",1
